The results in this text go back to PMC8115694, “Distinct axial and lateral interactions within homologous filaments dictate the signaling specificity and order of the AIM2-ASC inflammasome” (Nature Communications, 2021).

Data set [1] concerns the molecule itself. Put plainly: cryo-EM structure; helical reconstruction of the untagged AIM2 (1-117) filament; 2.75 uM protein cleaved for 30 min with 6 uM TEVp.
Data set [2] deals with the molecule itself. Description: confocal fluorescence microscopy of fluor-labelled recombinant filaments; two differentially labelled (Alexa488, Dylight550) MBP-tagged PYD populations mixed at 1:1 ratio (1 uM each), polymerisation triggered by cleaving MBP with TEVp.

B1: AIM2^PYD filament construct with ~20 a.a. of the unstructured linker (residues 1-117), untagged (domain or fragment, human, UniProt O14862 1-117, looked up)
chain: MESKYKEILLLTGLDNITDEELDRFKFFLSDEFNIATGKLHTANRIQVATLMIQNAGAVSAVMKTIRIFQKLNYMLLAKRLQEEKEKVDKQYKSVTKPKPLSQAEMSPAASAAIRND
notes: AIM2 (absent in melanoma 2), human, residues 1-117: PYD plus ~20 a.a. of the unstructured linker; Helical filament; 2.75 uM protein cleaved for 30 min with 6 uM TEVp before freezing; also called AIM2^IRND; source: MBP cleaved with TEVp; not shown: MBP, N-terminal, cleaved
Consider B1, for which, in data set [1], the binding result is recorded as “binds”.

B2: AIM2^PYD (residues 1-94) S94C, fluorophore-labelled (domain or fragment, human, UniProt O14862 1-94, looked up)
chain: MESKYKEILLLTGLDNITDEELDRFKFFLSDEFNIATGKLHTANRIQVATLMIQNAGAVSAVMKTIRIFQKLNYMLLAKRLQEEKEKVDKQYKC
modifications: fluorophore label (Alexa488 or Dylight550; FRET donor or acceptor); S94C for fluorophore labeling
notes: AIM2, human, pyrin domain, residues 1-94; Polymerisation is triggered by cleaving MBP with TEVp; the protein stands as nascent monomer or as preassembled filament; also called MBP-AIM2^PYD; source: MBP cleaved with TEVp in the assay; not shown: MBP, N-terminal, cleaved
As for B2, the binding result in data set [2] was “binds”.
